Laboratory results published in patent US20160046944, “APTAMER TO IL-17 AND USE THEREOF” (THE UNIVERSITY OF TOKYO, published 2016).

T1: IL-17 (Homo sapiens, UniProt Q16552 Q16552:24-155)
T1 sequence: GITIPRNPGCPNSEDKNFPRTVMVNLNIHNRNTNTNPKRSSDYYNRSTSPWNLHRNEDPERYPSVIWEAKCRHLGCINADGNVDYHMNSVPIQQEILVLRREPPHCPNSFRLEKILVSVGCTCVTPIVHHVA

T2: IL-17 (IL-17A) (Homo sapiens, UniProt Q16552 Q16552:24-155)
T2 sequence: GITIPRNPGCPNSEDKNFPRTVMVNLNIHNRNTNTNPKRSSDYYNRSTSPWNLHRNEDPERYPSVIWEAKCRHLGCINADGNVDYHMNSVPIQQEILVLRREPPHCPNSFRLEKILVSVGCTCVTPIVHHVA

B1: aptamer No. 55 (mixed)
mixed: GGGUAGCCGGAGGAGTCAGTGAUCGGUACCC
modifications: 2'-OMe (M), 2'-F (F), PS (S) as marked; uppercase DNA [2'-OMe: 1,2,3,4,7,8,10,13,14,23,24,25,26,28; 2'-F: 11,17,18,27; PS: 6]
B2: aptamer No. 67 (mixed)
mixed: GGGUAGCCGGAGGAGTCAGTAAUCGGUACCC
modifications: 2'-OMe (M), 2'-F (F), PS (S) as marked; uppercase DNA [2'-OMe: 1-5,7,8,10,13,14,17,21-31; 2'-F: 11,18; PS: 6,15,19]
B3: aptamer No. 71 (mixed)
RNA: GGGUAGCCGGAGGAGUCAGUAAUCGGUACCC
modifications: 2'-OMe (M), 2'-F (F), PS (S) as marked; uppercase DNA [2'-OMe: 1-5,7,8,10,13,14,17,21-26,28-31; 2'-F: 11,16,18,20,27; PS: 6,15,19]
B4: aptamer No. 88 (mixed)
RNA: GGGUAGCCGGAGGAGUCAGUGAUCGGUACCC
modifications: 2'-OMe (M), 2'-F (F), PS (S) as marked; uppercase DNA [2'-OMe: 1-5,7,8,10,11,13,14,17,22-26,28-31; 2'-F: 16,18,20,27; PS: 6,15,19; DNA: 9]
B5: aptamer No. 57 (mixed)
mixed: GGGUAGCCGGAGGAGTCAGTAAUCGGUACCC
modifications: 2'-OMe (M), 2'-F (F), PS (S) as marked; uppercase DNA [2'-OMe: 1,2,3,4,7,8,10,13,14,19,21,22,23,24,25,26,28; 2'-F: 11,17,18,27; PS: 6,15]
B6: aptamer No. 61 (mixed)
mixed: GGGUAGCCGGAGGAGTCAGTAAUCGGUACCC
modifications: 2'-OMe (M), 2'-F (F), PS (S) as marked; uppercase DNA [2'-OMe: 1,2,3,4,7,8,10,11,13,14,19,21,22,23,24,25,26,28; 2'-F: 17,18,27; PS: 6,15]
B7: aptamer No. 74 (mixed)
mixed: GGGUAGCCGGAGGAGTCAGTAAUCGGUACCC
modifications: 2'-OMe (M), 2'-F (F) as marked; uppercase DNA [2'-OMe: 1-5,7,8,10,13,14,21-26,28-31; 2'-F: 11,17,18,27]
B8: aptamer No. 50 (ssRNA)
RNA: GGUCUAGCCGGAGGAGUCAGUAAUCGGUAGACC
modifications: 2'-F all U and C except none: ggu(F)c(F)u(F)agc(F)c(F)ggaggagu(F)c(F)agu(F)aau(F)c(F)ggu(F)agac(F)c(F)
B9: aptamer No. 42 (mixed)
mixed: GGGUAGCCGGAGGAGTCAGTAAUCGGTACCC
modifications: g(M)g(M)g(M)u(M)Agc(M)c(M)Gg(M)agg(M)a(M)gTc(F)agTaAu(M)c(M)g(M)g(M)Ta(M)c(M)c(M)c(M)
B10: aptamer No. 30 (mixed)
mixed: GGGUAGCCGGAGGAGTCAGTAAUCGGTACCC
modifications: g(M)g(M)g(M)u(M)Agc(M)c(M)Gg(M)Agg(M)a(M)gTc(F)agTa(M)Au(M)c(M)g(M)g(M)Ta(M)c(M)c(M)c(M)
B11: aptamer No. 49 (mixed)
mixed: GGGUAGCCGGAGGAGTCAGTAAUCGGUACCC
modifications: g(M)g(M)g(M)u(M)Agc(M)c(M)Gg(M)Agg(M)a(M)gTc(F)agTaau(M)c(M)g(M)g(M)u(F)a(M)CCC (one (M) misprinted as (PI))
B12: aptamer No. 46 (mixed)
mixed: GGGUAGCCGGAGGAGTCAGTAAUCGGUACCC
modifications: g(M)g(M)g(M)u(M)Ag(S)c(M)c(M)Gg(M)Agg(M)a(M)gTc(F)agTaau(M)c(M)g(M)g(M)u(F)a(M)CCC
B13: aptamer No. 41 (mixed)
mixed: GGGUAGCCGGAGGAGTCAGTAAUCGGTACCC
modifications: g(M)g(M)g(M)u(M)Agc(M)c(M)Gg(M)agg(M)a(M)gTc(F)agTaau(M)c(M)g(M)g(M)Ta(M)c(M)c(M)c(M)
B14: aptamer No. 43 (mixed)
mixed: GGGUAGCCGGAGGAGTCAGTAAUCGGTACCC
modifications: g(M)g(M)g(M)u(M)Agc(M)c(M)Gg(M)agg(M)a(M)gTc(F)agTa(M)au(M)c(M)g(M)g(M)Ta(M)c(M)c(M)c(M)
B15: aptamer No. 29 (mixed)
mixed: GGGUAGCCGGAGGAGTCAGTAAUCGGTACCC
modifications: g(M)g(M)g(M)u(M)Agc(M)c(M)Gg(M)Agg(M)a(M)gTc(F)agTa(M)a(M)u(M)c(M)g(M)g(M)Ta(M)c(M)c(M)c(M)
B16: aptamer No. 47 (mixed)
mixed: GGGUAGCCGGAGGAGTCAGTAAUCGGUACCC
modifications: g(M)g(M)g(M)u(M)Agc(M)c(M)Gg(M)a(F)gg(M)a(M)gTc(F)a(F)gTaau(M)c(M)g(M)g(M)u(F)a(M)CCC
B17: aptamer No. 39 (mixed)
mixed: GGGUAGCCGGAGGAGTCAGTAAUCGGTACCC
modifications: g(M)g(M)g(M)u(M)Agc(M)c(M)Gg(M)Agg(M)a(M)gTc(F)AgTaa(M)u(M)c(M)g(M)g(M)Ta(M)c(M)c(M)c(M)
B18: aptamer No. 44 (mixed)
mixed: GGGUAGCCGGAGGAGTCAGTAAUCGGTACCC
modifications: g(M)g(M)g(M)u(M)Agc(M)c(M)Gg(M)agg(M)a(M)gTc(F)AgTa(M)au(M)c(M)g(M)g(M)Ta(M)c(M)c(M)c(M)
B19: aptamer No. 35 (mixed)
mixed: GGGUAGCCGGAGGAGTCAGTAAUCGGTACCC
modifications: g(M)g(M)g(M)u(M)Agc(M)c(M)Gg(M)Agg(M)a(M)gTc(F)AgTa(M)Au(M)c(M)g(M)g(M)Ta(M)c(M)c(M)c(M)
B20: aptamer No. 45 (mixed)
mixed: GGGUAGCCGGAGGAGTCAGTAAUCGGUACCC
modifications: g(M)g(M)g(M)u(M)Ag(S)c(M)c(M)Gg(M)agg(M)a(M)gTc(F)agTaau(M)c(M)g(M)g(M)u(F)a(M)CCC
B21: aptamer No. 31 (mixed)
mixed: GGGUAGCCGGAGGAGTCAGTAAUCGGTACCC
modifications: g(M)g(M)g(M)u(M)Ag(S)c(M)c(M)Gg(M)Agg(M)a(M)gTc(F)agTaau(M)c(M)g(M)g(M)TAc(M)c(M)c(M)
B22: aptamer No. 28 (mixed)
mixed: GGGUAGCCGGAGGAGTCAGTAAUCGGTACCC
modifications: g(M)g(M)g(M)u(M)Agc(M)c(M)Gg(M)Agg(M)a(M)gTc(F)agTaau(M)c(M)g(M)g(M)Ta(M)c(M)c(M)c(M)
B23: aptamer No. 40 (mixed)
mixed: GGGUAGCCGGAGGAGTCAGTAAUCGGTACCC
modifications: g(M)g(M)g(M)u(M)Agc(M)c(M)Gg(M)Agg(M)a(M)gTc(F)AgTa(M)au(M)c(M)g(M)g(M)Ta(M)c(M)c(M)c(M)
B24: aptamer No. 26 (mixed)
mixed: GGGUAGCCGGAGGAGTCAGTAAUCGGTACCC
modifications: (M)=2'-OMe,(F)=2'-F,(S)=PS, lowercase RNA, uppercase DNA: g(M)g(M)g(M)u(M)Ag(S)c(M)c(M)Gg(M)Agg(M)a(M)gTc(F)agTaau(M)c(M)g(M)g(M)Ta(M)c(M)c(M)c(M)
B25: aptamer No. 52 (mixed)
mixed: GGGUAGCCGGAGGAGTCAGTAAUCGGUACCC
modifications: g(M)g(M)g(M)u(M)Ag(S)c(M)c(M)Gg(M)a(F)gg(M)a(M)g(S)Tc(F)a(F)gTa(M)a(M)u(M)c(M)g(M)g(M)u(F)a(M)CCC

The binders below were run against T1, IL-17 (assay: cell_activity; NIH3T3 IL-6 release). Settings: chain copies: 2.
Experimental: (§1) First, human IL-17 and the aptamer produced in Example 1-2 were pre-incubated at 37° C. for 30 min, and added to NIH3T3 cell (ATCC, CRL1658) together with mouse TNFα (2 ng/mL). Then, after incubation for 24 hr, the culture supernatant was collected, and the production amount of IL-6 was measured by ELISA method described below. The IL-17 inhibitory action of each aptamer was determined from the production amount of IL-6. For comparison with the aptamer of the present invention, a conventionally-known aptamer (aptamer No. 50) against IL-17 was used.
ELISA method for verifying IL-17 inhibitory action of aptamer: A microtiter plate for ELISA was coated with rat anti-mouse IL-6 antibody (BD Biosciences, 2 μg/mL; 100 μL/well) diluted with PBS, and incubated at 4° C. overnight. The next day, the microtiter plate was washed 3 times with PBS/0.05% Tween 20, and applied blocking with PBS/1% BSA (200 μL/well) at room temperature for 2 hr. Then, the plate was washed 3 times with PBS/0.05% Tween 20. Recombinant mouse IL-6 (BD Biosciences; 100 μL/well) serially diluted with PBS/1% BSA/0.05% Tween 20 or culture supernatants (100 μL/well) were added to the plate. After incubation at room temperature for 2 hr, the plate was washed 3 times with PBS/0.05% Tween 20. Then, 100 μL/well of biotin conjugated rat anti-mouse IL-6 antibody (BD Biosciences) was added to the plate at final dilution of 1/500, and the mixture was reacted at room temperature for 1 hr. After washing 3 times with PBS/0.05% Tween 20, 100 μL/well of alkaline phosphatase conjugated streptavidin was added at final dilution of 1/1000. After 30 min at room temperature, the plate was again washed 4 times with PBS/0.05% Tween 20, and a substrate (1-Step PNPP; Thermo Fisher Scientific Inc; 100 μL/well) was added. After 15 min, aqueous sodium hydroxide solution (2N: 50 μL/well) was added to stop the reaction, and the plate was read on a microtiter reader (Bio-Rad) by using a 405 nm filter.

Binder | IC50
B1 | 0.11 nM
B2 | 5.95 nM
B3 | 5.54 nM
B4 | 2.88 nM
B5 | 2.36 nM
B6 | 3.41 nM
B7 | 1.06 nM

What follows are binders tested against T1, IL-17 (assay: cell_activity; NIH3T3 IL-6 release, human IL-17 + mouse TNFa, 37 C; 8.63 nM in Table 6). Settings: chain copies: 2.
Experimental: as §1
(§2) ELISA method for verifying IL-17 inhibitory action of aptamer: A microtiter plate for ELISA was coated with rat anti-mouse IL-6 antibody (BD Biosciences, 2 μg/mL; 100 μL/well) diluted with PBS, and incubated at 4° C. overnight. The next day, the microtiter plate was washed 3 times with PBS/0.05% Tween 20, and applied blocking with PBS/1% BSA (200 μL/well) at room temperature for 2 hr. Then, the plate was washed 3 times with PBS/0.05% Tween 20. Recombinant mouse IL-6 (BD Biosciences; 100 μL/well) serially diluted with PBS/1% BSA/0.05% Tween 20 or culture supernatants (100 μL/well) were added to the plate. […] After 15 min, aqueous sodium hydroxide solution (2N: 50 μL/well) was added to stop the reaction, and the plate was read on a microtiter reader (Bio-Rad) by using a 405 nm filter.

Binder | IC50
B8 | 7.36 nM

What follows are binders tested against T2, IL-17 (IL-17A) (assay: cell_activity; IL-6 release, NIH3T3). Settings: chain copies: 2.
Experimental: (§3) First, human IL-17 and the aptamer produced in Example 1-1 were pre-incubated at 37° C. for 30 min, and added to NIH3T3 cell (ATCC, CRL1658) together with mouse TNFα (2 ng/mL). Then, after incubation for 24 hr, the culture supernatant was collected, and the amount of IL-6 was measured by BD Cytometric Bead Array (BD Biosciences). The IL-17 inhibitory action of each aptamer was determined from the amount of IL-6. For comparison with the aptamer of the present invention, a conventionally-known aptamer (aptamer No. 50) against IL-17 was used.

Binder | IC50
B9 | 0.51 nM
B10 | 1.49 nM
B11 | 0.65 nM
GGGUAGCCGGAGGAGTCAGTAAUCGGTACCC (mixed, g(M)g(M)g(M)u(M)Agc(M)c(M)gg(M)Agg(M)a(M)gTc(F)agTa(M)Au(M)c(M)g(M)g(M)TACCC) [aptamer No. 33] | 4.31 nM
B12 | 1.13 nM
GGGUAGCCGGAGGAGTCAGTAAUCGGTACCC (mixed, g(M)g(M)g(M)u(M)Agc(M)c(M)gg(M)Agg(M)a(M)gTc(F)agTa(M)a(M)u(M)c(M)g(M)g(M)TACCC) [aptamer No. 32] | 4.62 nM
B13 | 0.4 nM
GGGUAGCCGGAGGAGTCAGTAAUCGGUACCC (mixed, g(M)g(M)g(M)u(M)Agc(M)c(M)Gg(M)agg(M)a(M)gTc(F)agTaau(M)c(M)g(M)g(M)u(F)a(M)CCC) [aptamer No. 48] | 0.3 nM
B14 | 0.49 nM
B15 | 2.53 nM
B16 | 0.59 nM
B17 | 3.91 nM
B18 | 1.83 nM
B19 | 2.47 nM
B20 | 0.76 nM
B21 | 0.3 nM
B22 | 2.11 nM
B23 | 3.75 nM

Each binder was assayed against T2, IL-17 (IL-17A) (assay: cell_activity; IL-6 release, NIH3T3, 37 C). Settings: chain copies: 2.
Experimental: as §3

Binder | IC50
B24 | 0.78 nM

What follows are binders tested against T1, IL-17 (assay: SPR; IL-17 150 nM, aptamer 12.5 or 50 nM). Settings: chain copies: 2.
Experimental: Whether the synthesized aptamers inhibit the binding of IL-17 and IL-17 receptor was evaluated by the surface plasmon resonance method.
For the measurement, BIAcore T100 manufactured by GE Healthcare Bio Sciences was used. […] As an analyte, IL-17 (150 nM) and each aptamer (12.5 or 50 nM) shown by Table 3 were mixed, maintained for 15 min and after that the mixture was flown.

Binder | binding signal
B1 | 19 % IL-17/IL-17R binding remaining

What follows are binders tested against T2, IL-17 (IL-17A) (assay: cell_activity; IL-6 release (ELISA), NIH3T3). Settings: chain copies: 2.
Experimental: as §1, §2

Binder | IC50
B25 | 1.11 nM
